Earlier results, collected in PMC8569200.

Molecular target: CD137 (Homo sapiens) (UniProt Q07011)
Assay: SPR

CD137L, sequence (P41273 whole entry): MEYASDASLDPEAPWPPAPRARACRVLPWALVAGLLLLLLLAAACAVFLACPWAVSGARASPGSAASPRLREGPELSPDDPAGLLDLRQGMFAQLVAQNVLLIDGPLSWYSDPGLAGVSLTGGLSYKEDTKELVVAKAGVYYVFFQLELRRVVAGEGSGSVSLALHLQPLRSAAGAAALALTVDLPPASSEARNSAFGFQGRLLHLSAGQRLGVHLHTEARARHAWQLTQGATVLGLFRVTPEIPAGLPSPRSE
CD137 (Homo sapiens), sequence (Q07011 24-255): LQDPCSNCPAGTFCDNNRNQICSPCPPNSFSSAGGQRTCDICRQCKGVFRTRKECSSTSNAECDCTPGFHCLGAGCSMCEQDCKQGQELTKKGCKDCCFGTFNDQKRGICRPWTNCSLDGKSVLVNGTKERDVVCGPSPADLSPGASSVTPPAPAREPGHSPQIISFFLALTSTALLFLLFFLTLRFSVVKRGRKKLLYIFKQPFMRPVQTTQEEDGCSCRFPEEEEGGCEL

Kd: 680 nM
Substance: CD137L (from UniProt P41273)
